The Kd is the equilibrium constant for the complex coming apart. In general, IC50 refers to the concentration that gives 50% inhibition. Low readings indicate higher potency, high ones lower potency.

The text below walks through data of the Immune Epitope Database (IEDB).

One test addresses HLA-B*39:01. Nature of the test: IEDB peptide-MHC binding, purified MHC/competitive/fluorescence; filed as Kd, often an IC50 or EC50 that approximates it; ≥ and ≤ were set here for values at or beyond the usual limits of such assays.
Test [1] addresses HLA-A*02:01. The test is described as above.
The next test concerns the target HLA-B*46:01. The test is described as above.
The target of another test is HLA-B*57:01. The description is as above.
In the next test the target is HLA-A*26:01. The description is as above.
Another test has as its target HLA-B*51:01. The description is as above.
The target in test [2] is HLA-B*18:01. Described as above.
Another test addresses HLA-A*69:01. Described as above.
The next test deals with HLA-B*27:03. The test is described as above.
Another test concerns the target HLA-B*15:17. Described as above. Particulars: source organism: Zaire ebolavirus.
The next test concerns the target HLA-A*29:02. Nature of the test: IEDB peptide-MHC binding, purified MHC/direct/fluorescence; filed as Kd, often an IC50 or EC50 that approximates it; ≥ and ≤ were set here for values at or beyond the usual limits of such assays. Particulars: source organism: Zaire ebolavirus.
Test [3] addresses HLA-A*02:19. Described as above. Particulars: source organism: Zaire ebolavirus.
The target in test [4] is HLA-B*15:01. The test is described as above. Particulars: source organism: Zaire ebolavirus.
For test [5], the target named is HLA-A*03:01. Described as above. Particulars: source organism: Zaire ebolavirus.
For another test, the target named is HLA-A*24:03. The description is as above. Particulars: source organism: Zaire ebolavirus.
The target of a further test is HLA-A*02:16. Described as above. Particulars: source organism: Zaire ebolavirus.
A further test deals with HLA-A*68:02. The test is described as above. Particulars: source organism: Zaire ebolavirus.
Test [6] has as its target HLA-A*02:03. Described as above. Particulars: source organism: Zaire ebolavirus.
Test [7] concerns the target HLA-A*02:12. The test is described as above. Particulars: source organism: Zaire ebolavirus.
Test [8] deals with HLA-A*02:11. Described as above. Particulars: source organism: Zaire ebolavirus.
In test [9] the target is HLA-B*15:01. Put plainly: IEDB peptide-MHC binding, purified MHC/competitive/fluorescence; ≥ and ≤ were set here for values at or beyond the usual limits of such assays.
Another test has as its target HLA-B*08:01. The description is as above.
In another test the target is HLA-A*24:02. Described as above.
In test [10] the target is HLA-A*02:19. Put plainly: IEDB peptide-MHC binding, purified MHC/competitive/fluorescence; filed as Kd, often an IC50 or EC50 that approximates it; ≥ and ≤ were set here for values at or beyond the usual limits of such assays.
A further test addresses HLA-A*02:06. The description is as above.
The target in test [11] is HLA-A*02:03. Described as above.
Test [12] concerns the target HLA-A*02:11. The description is as above.
Test [13] addresses HLA-A*02:01. Put plainly: IEDB peptide-MHC binding, purified MHC/competitive/fluorescence; ≥ and ≤ were set here for values at or beyond the usual limits of such assays.
In the next test the target is HLA-C*14:02. Nature of the test: IEDB peptide-MHC binding, purified MHC/direct/fluorescence; filed as Kd, often an IC50 or EC50 that approximates it; ≥ and ≤ were set here for values at or beyond the usual limits of such assays. Particulars: source organism: Vibrio vulnificus YJ016.
Test [14] addresses HLA-B*15:01. Put plainly: IEDB peptide-MHC binding, purified MHC/competitive/fluorescence; filed as Kd, often an IC50 or EC50 that approximates it; ≥ and ≤ were set here for values at or beyond the usual limits of such assays. Particulars: source organism: Yersinia pestis Nepal516.
Test [15] deals with HLA-A*03:01. Described as above. Particulars: source organism: Yersinia pestis Nepal516.
The target of test [16] is HLA-A*02:12. The description is as above. Particulars: source organism: Yersinia pestis Nepal516.
The next test has as its target HLA-B*45:01. Nature of the test: IEDB peptide-MHC binding, purified MHC/competitive/radioactivity; filed as Kd, often an IC50 or EC50 that approximates it; ≥ and ≤ were set here for values at or beyond the usual limits of such assays.
The next test concerns the target HLA-B*40:01. Described as above.
The target of test [17] is HLA-B*18:01. The test is described as above.
Another test deals with HLA-B*44:02. The test is described as above.
The target in a further test is HLA-B*44:03. The description is as above.
A further test deals with HLA-B*40:02. The description is as above.
Where [18] appears, read: source organism: Zaire ebolavirus.
Where [19] appears, read: source organism: Human immunodeficiency virus 1.
Setting [20] is: source organism: Sudan ebolavirus.
The mark [21] stands for this setting: source organism: Vibrio vulnificus YJ016.
The mark [22] stands for this setting: source organism: Yersinia pestis Nepal516.
Setting [23] is: source organism: Lassa virus Josiah.
Setting [24] is: source organism: SARS coronavirus Tor2.
[25] abbreviates: source organism: Mammarenavirus whitewaterense.

For the sequence HQKKNEISF, the Kd with HLA-B*39:01 (setting [18]), with HLA-A*02:01 [1] (setting [18]), with HLA-B*46:01 (setting [18]), in the test with HLA-B*57:01 (setting [18]), with HLA-A*26:01 (setting [18]) and with HLA-B*51:01 (setting [18]) was at least 20 µM in each case. For the same sequence, the Kd with HLA-B*18:01 [2] (setting [18]), with HLA-A*69:01 (setting [18]), in the test with HLA-B*27:03 (setting [18]), with HLA-B*15:17, with HLA-A*29:02 and with HLA-A*02:19 [3] was at least 20 µM throughout. The Kd with HLA-B*15:01 [4] is 0.233 µM; with HLA-A*03:01 [5], at least 20 µM; in the test with HLA-A*24:03 it was at least 20 µM; with HLA-A*02:16, at least 20 µM; in the test with HLA-A*68:02, at least 20 µM; with HLA-A*02:03 [6], at least 20 µM. Moreover, the Kd in the test with HLA-A*02:12 [7] and with HLA-A*02:11 [8] was at least 20 µM each time. In addition, the IC50 was 6.66 µM with HLA-B*15:01 [9] (setting [18]), 42.2 µM with HLA-B*08:01 (setting [18]) and at least 116 µM in the test with HLA-A*24:02 (setting [18]).

Regarding NTVATLYCV, the Kd with HLA-A*02:19 [10] (setting [19]) was 0.0107 µM; with HLA-A*02:01 [1] (setting [19]) it was 0.215 µM; in the test with HLA-A*02:06 (setting [19]), at most 0.0001 µM; with HLA-A*02:03 [11] (setting [19]), 0.0135 µM; with HLA-A*69:01 (setting [19]), at most 0.001 µM; with HLA-A*02:11 [12] (setting [19]) it was 0.0007 µM.

As for NFLIKFLLI, the IC50 with HLA-A*02:01 [13] (setting [18]) is at least 614 µM; with HLA-B*08:01 (setting [18]), at least 1610 µM; in the test with HLA-A*24:02 (setting [18]), 0.0094 µM.

Consider TVIYRGVNF, for which the IC50 with HLA-A*02:01 [13] (setting [20]) is at least 790 µM; with HLA-B*15:01 [9] (setting [20]), 28.3 µM; with HLA-B*08:01 (setting [20]) it was at least 88 µM; with HLA-A*24:02 (setting [20]), 3.58 µM.

As to MMKDEPVVF, the IC50 with HLA-A*02:01 [13] (setting [18]) was at least 116 µM; with HLA-B*15:01 [9] (setting [18]) it was 8.81 µM; in the test with HLA-B*08:01 (setting [18]), at least 205 µM; with HLA-A*24:02 (setting [18]) it was 0.218 µM.

Consider HSQGREAAV, for which the IC50 with HLA-A*02:01 [13] (setting [18]) is at least 254 µM; with HLA-B*08:01 (setting [18]), at least 172 µM.

Regarding RQIQGIAAF, the figures for the Kd in the test with HLA-A*02:01 [1] (setting [21]), with HLA-A*02:06 (setting [21]) and with HLA-C*14:02 were 1.65 µM, 0.0133 µM and 2.62 µM, respectively.

Regarding SMLCWLGMT, the Kd with HLA-B*39:01 (setting [22]), with HLA-A*02:19 [10] (setting [22]), with HLA-B*15:01 [14], with HLA-B*46:01 (setting [22]), with HLA-A*03:01 [15] and in the test with HLA-B*57:01 (setting [22]) was at least 20 µM throughout. Also, the Kd is at least 20 µM with HLA-A*26:01 (setting [22]); at least 20 µM with HLA-B*51:01 (setting [22]); at least 20 µM with HLA-B*18:01 [2] (setting [22]); at least 20 µM with HLA-A*02:03 [11] (setting [22]); 0.577 µM in the test with HLA-A*02:12 [16]; at least 20 µM in the test with HLA-B*27:03 (setting [22]). In the test with HLA-A*02:11 [12] (setting [22]), this sequence returned a Kd of 0.0512 µM.

For SEGKDTPGGY, the dissociation constant (Kd) in the test with HLA-B*45:01 (setting [23]) is at least 70 µM; with HLA-B*40:01 (setting [23]), at least 25.4 µM; with HLA-B*18:01 [17] (setting [23]), at least 59.6 µM; with HLA-B*44:02 (setting [23]), 1.45 µM; with HLA-B*44:03 (setting [23]) it was 1.75 µM; in the test with HLA-B*40:02 (setting [23]), at least 70.8 µM.

On to TEIEPKLDG, for which the Kd in the test with HLA-B*45:01 (setting [24]) was at least 28.6 µM; with HLA-B*40:01 (setting [24]) it was at least 76.2 µM; with HLA-B*18:01 [17] (setting [24]) it was at least 77.5 µM; with HLA-B*44:02 (setting [24]) it was 17.9 µM; with HLA-B*44:03 (setting [24]), 13.4 µM; with HLA-B*40:02 (setting [24]), at least 74.8 µM.

Turning to KEQYCALSPG, the Kd in the test with HLA-B*45:01 (setting [24]) is 0.259 µM; with HLA-B*40:01 (setting [24]), 4.67 µM; with HLA-B*18:01 [17] (setting [24]) it was at least 70.5 µM; with HLA-B*44:02 (setting [24]), 2.61 µM; with HLA-B*44:03 (setting [24]) it was 3.46 µM; with HLA-B*40:02 (setting [24]) it was 0.831 µM.

For the sequence LEITDVTTL, the Kd with HLA-B*45:01 (setting [25]) was at least 77.7 µM; with HLA-B*40:01 (setting [25]) it was 0.127 µM; in the test with HLA-B*18:01 [17] (setting [25]), 0.462 µM; in the test with HLA-B*44:02 (setting [25]) it was 0.0257 µM; with HLA-B*44:03 (setting [25]), 0.0618 µM; with HLA-B*40:02 (setting [25]), 0.0801 µM.
